Assay results from patent publication US20210388105A1 (ELPISCIENCE SUZHOU BIOPHARMA, published 2021).

Key:
Experiment in all cases: FACS, mutant-EGFP on HEK293F cells
[1] = molecular target: T1, KW27-18 (human CD39 mutant, C-terminal EGFP) (human, UniProt P49961 1-510)
T1 construct: expressed on HEK293F cells; not shown: C-terminal EGFP fusion (vector pCMV3-GFPSpark)
T1 chain: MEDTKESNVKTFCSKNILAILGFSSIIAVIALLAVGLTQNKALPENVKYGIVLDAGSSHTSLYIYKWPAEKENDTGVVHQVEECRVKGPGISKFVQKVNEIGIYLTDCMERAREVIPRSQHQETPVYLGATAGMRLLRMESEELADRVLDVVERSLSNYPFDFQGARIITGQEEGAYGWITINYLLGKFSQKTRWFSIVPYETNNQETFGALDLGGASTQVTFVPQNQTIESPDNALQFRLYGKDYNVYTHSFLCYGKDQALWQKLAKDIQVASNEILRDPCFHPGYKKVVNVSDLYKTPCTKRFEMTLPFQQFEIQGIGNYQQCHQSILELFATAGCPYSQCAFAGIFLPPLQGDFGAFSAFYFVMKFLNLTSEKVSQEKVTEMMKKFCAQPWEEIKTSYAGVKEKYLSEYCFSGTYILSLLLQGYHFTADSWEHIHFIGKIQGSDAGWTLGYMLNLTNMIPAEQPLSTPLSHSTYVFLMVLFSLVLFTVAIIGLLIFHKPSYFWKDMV
In short: (§1)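 HEK293F cells were transfected with human CD39 mutants carrying C-terminal GFP and used 3 days later. Antibodies were titrated from 100 nM (3-fold, 11 points) and detected by FACS with AlexaFluor647 anti-hIgG. Relative binding was AlexaFluor647 intensity divided by GFP intensity.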

[2] = molecular target: T2, KW27-15 (human CD39 mutant, C-terminal EGFP) (human, UniProt P49961 1-510)
T2 construct: expressed on HEK293F cells; not shown: C-terminal EGFP fusion (vector pCMV3-GFPSpark)
T2 chain: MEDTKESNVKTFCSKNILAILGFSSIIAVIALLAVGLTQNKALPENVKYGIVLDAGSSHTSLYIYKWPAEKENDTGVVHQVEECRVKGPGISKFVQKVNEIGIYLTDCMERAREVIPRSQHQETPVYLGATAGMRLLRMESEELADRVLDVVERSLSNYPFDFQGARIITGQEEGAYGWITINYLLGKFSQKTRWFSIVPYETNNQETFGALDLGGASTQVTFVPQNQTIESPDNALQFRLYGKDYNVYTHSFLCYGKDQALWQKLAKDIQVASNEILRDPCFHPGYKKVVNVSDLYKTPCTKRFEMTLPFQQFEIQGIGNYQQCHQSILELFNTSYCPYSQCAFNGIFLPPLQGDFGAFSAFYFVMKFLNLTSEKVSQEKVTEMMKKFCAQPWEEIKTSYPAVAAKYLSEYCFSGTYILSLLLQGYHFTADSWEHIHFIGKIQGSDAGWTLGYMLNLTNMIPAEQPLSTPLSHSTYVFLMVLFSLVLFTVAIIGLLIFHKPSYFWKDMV
In short: as §1

[3] = molecular target: T3, KW27-11 (human CD39 mutant, C-terminal EGFP) (human, UniProt P49961 1-510)
T3 construct: expressed on HEK293F cells; 'D3565' as printed is read as D356S; not shown: C-terminal EGFP fusion (vector pCMV3-GFPSpark)
T3 chain: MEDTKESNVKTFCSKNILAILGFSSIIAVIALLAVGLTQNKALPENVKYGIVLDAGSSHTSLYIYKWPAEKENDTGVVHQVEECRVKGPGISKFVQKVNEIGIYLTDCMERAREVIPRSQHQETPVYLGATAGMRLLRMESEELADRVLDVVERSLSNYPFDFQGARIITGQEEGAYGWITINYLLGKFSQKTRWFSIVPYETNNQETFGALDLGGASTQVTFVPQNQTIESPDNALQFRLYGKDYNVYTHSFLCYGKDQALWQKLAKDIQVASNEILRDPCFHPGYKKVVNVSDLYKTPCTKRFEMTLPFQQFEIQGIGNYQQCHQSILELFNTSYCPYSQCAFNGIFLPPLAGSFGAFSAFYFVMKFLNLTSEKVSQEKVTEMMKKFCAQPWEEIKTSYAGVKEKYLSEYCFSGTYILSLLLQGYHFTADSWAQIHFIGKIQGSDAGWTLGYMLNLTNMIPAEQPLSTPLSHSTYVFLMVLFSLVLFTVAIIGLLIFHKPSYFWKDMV
In short: as §1

[4] = molecular target: T4, KW27-14 (human CD39 mutant, C-terminal EGFP) (human, UniProt P49961 1-510)
T4 construct: expressed on HEK293F cells; not shown: C-terminal EGFP fusion (vector pCMV3-GFPSpark)
T4 chain: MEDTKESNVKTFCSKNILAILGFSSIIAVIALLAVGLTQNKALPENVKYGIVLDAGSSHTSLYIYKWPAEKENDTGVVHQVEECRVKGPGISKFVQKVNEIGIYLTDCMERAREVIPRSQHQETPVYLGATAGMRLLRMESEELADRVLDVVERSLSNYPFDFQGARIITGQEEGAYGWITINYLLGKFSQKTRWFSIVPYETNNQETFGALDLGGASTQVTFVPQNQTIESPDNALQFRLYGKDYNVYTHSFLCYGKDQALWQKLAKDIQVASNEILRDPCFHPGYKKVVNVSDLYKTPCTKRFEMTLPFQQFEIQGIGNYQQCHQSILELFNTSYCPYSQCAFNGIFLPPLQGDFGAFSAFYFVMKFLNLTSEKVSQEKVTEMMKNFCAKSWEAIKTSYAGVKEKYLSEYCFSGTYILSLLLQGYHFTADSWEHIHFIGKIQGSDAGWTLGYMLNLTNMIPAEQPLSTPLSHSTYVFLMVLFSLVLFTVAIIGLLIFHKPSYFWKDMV
In short: as §1

Measured: binding result

B1: c34 (antibody, V domains shown)
VH: EIQVQQSGPELVKPGASVKVSCKASGYSFTDYNMYWVKQSHGKSLEWIGFIDPYNGYTSYNQKFKGKATLTIDKSSSTAFMHLNSLTSEDSAVYYCAIYGYDDAYYFDYWGQGTTLTVSS
VL: QIVLTQSPAIMSASPGEKVTITCSATSSVSYMHWFRQKPGTSPKLWIYSTSNLASGVPARFSGSGSGTSYSLTISRMAAEDAATYYCQQRITYPFTFGSGTKLEIT
notes: its making is not described; also called chimeric antibody c34
binds: all assays above

B2: Antibody 9-8B (antibody, V domains shown)
VH: QIQLVQSGPELKKPGETVKISCKASGYTFTHYGMNWVKQAPGKGLKWMGWINTYTGELTYADDFKGRFAFSLETSASTAYLQINNLKNEDTATYFCARRAYYRYDYVMDYWGQGTSVTVSS
VL: DIVMTQSQKFMSTSVGDRVSVTCKASHNVGTNVAWYQQKPGQSPKALIYSASYRYSGVPGRFTGSGSGTDFTLTISNVQSEDLAEYFCHQYNNYPYTFGGGTKLEIK
binds: all assays above

B3: hu23.H5L5 (antibody, V domains shown)
VH: QVQLVQSGAEVKKPGASVKVSCKASGYNLKDTFLHWVRQAPGQGLEWMGRIDPANGNIKYDPKFQGRVTITADTSANTAYMELISLRSEDTAVYYCANSPYYYGSGYRIFDVWGQGTTVTVSS
VL: QIVLTQSPATLSLSPGERATLSCSAFSSVNYMHWYQQKPGQAPRLLIYTTSNLASGIPTRFSGSGSGTSYTLTISSLEPEDFAVYYCQQRSTYPFTFGQGTKLEIK
notes: humanized c23
binds: all assays above

B4: Antibody T895 (antibody, V domains shown)
VH: EVQLQQSGPELVKPGASVKMSCKASGYTFTDYNMHWVKQSHGRTLEWIGYIVPLNGGSTFNQKFKGRATLTVNTSSRTAYMELRSLTSEDSAAYYCARGGTRFAYWGQGTLVTVSA
VL: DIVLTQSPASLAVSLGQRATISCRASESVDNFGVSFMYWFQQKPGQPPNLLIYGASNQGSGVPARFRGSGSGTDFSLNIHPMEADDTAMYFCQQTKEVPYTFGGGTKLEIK
notes: also called 31895
binds: all assays above

B5: c35 (antibody, V domains shown)
VH: EVRLQQSGAELVKPGASVKLSCTASGFNIEDTYVHWMKQRPEQGLEWIGRIDPAIDNSKYDPKFQGKATITAVSSSNTAYLQLSSLTSEDTAVYYCALYDGYNVYAMDYWGQGTSVTVSS
VL: DIVMTQAAFSNPVTLGTSASISCRSSKNLLHSNGITYLYWYLQRPGQSPQLLIYRASTLASGVPNRFSGSESGTDFTLRISRVEAEDVGVYYCAQLLELPHTFGGGTKLEIK
notes: its making is not described; also called chimeric antibody c35
binds: all assays above
